# Measurements reported in patent publication EP1237001A1, “SCREENING METHOD” (Takeda Chemical Industries, Ltd., priority 1999, dated 2001).
# Molecular target: T1, FM-3 (Homo sapiens, UniProt Q9HB89)
# T1 sequence (Q9HB89 24-426 limits assumed): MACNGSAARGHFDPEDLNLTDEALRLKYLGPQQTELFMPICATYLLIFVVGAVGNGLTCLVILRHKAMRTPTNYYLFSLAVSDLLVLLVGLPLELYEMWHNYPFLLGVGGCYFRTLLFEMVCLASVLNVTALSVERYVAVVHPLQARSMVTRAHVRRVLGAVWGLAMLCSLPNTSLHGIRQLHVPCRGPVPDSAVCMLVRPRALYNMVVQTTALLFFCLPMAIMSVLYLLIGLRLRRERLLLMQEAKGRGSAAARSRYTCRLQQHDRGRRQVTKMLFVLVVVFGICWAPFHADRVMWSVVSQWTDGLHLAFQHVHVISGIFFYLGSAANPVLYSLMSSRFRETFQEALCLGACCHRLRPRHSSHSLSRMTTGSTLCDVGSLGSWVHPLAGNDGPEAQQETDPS
# Assay: not given
# Details: labeled ligand; cells confirmed to express FM-3 on the cell membrane; Tan et al., Genomics 52, 223-229, 1998; cited from earlier work
row,Substance,binding with cells expressing FM-3
1,"Neurotensin: labeled Neurotensin, peptide ligand of the Neurotensin receptor",did not bind

# Molecular target: T2, FM-3 (Homo sapiens, UniProt Q9HB89)
# T2 sequence (Q9HB89 1-426): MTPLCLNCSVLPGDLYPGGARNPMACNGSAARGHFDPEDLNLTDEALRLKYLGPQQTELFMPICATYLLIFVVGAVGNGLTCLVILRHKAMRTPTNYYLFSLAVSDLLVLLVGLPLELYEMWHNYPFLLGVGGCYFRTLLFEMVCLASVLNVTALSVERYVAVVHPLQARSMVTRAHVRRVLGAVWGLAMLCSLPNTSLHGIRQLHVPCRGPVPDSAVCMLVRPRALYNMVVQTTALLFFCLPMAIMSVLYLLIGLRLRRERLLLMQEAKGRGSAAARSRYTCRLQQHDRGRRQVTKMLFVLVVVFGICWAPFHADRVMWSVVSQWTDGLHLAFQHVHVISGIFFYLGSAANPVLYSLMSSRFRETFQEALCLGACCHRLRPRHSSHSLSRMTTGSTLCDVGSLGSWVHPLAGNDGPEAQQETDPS
# Assay: not given
# Details: free intracellular calcium ion release measured as an index; Tan et al.; cited from earlier work
row,Substance,activation of FM-3
1,"VIP: vasoactive intestinal peptide, examined for activation of FM-3",not detected
2,endothelin,not detected
3,galanin: peptide examined for activation of FM-3,not detected
4,growth hormone releasing hormone: peptide examined for activation of FM-3,not detected
5,calcitonin: peptide examined for activation of FM-3,not detected
6,thyrotropin releasing hormone,not detected
7,somatostatin: peptide examined for activation of FM-3,not detected

# Molecular target: T1, FM-3
# Assay: site sensor assay of cell-stimulating activity (extracellular acidification rate)
# Assay type: cell-based
# Design: expressed in transfected cells
# Details: FM-3-expressing CHO cells versus mock CHO cells; exposure for 7 minutes and 2 seconds; 3 cycles before exposure set as 100 %; Fig. 1
# Procedure: Pig Neuromedin U-8 at the concentration indicated in FIG. 1 was added to FM-3-expressing CHO cells (●) and mock CHO cells (○) for 7 minutes and 2 seconds in the site sensor assay. The maximum value of acidification rate in the reaction was plotted.
# FM-3-expressing CHO cells and mock CHO cells, which were cultured in a cell-cultured container, were digested with trypsin and dissociated. The numbers of cells are counted. Then, the cells were inoculated in the capsules for site sensor (2.7 x 10^5 cells/capsule). After incubating them overnight, the capsules containing the cells were transferred to the sensor chamber for measurement, and then mounted to the workstation of the site sensor. The portion containing the cells was refluxed with low-buffered RMPI medium supplemented with 0.1% bovine serum albumin, and it was left still until the acidification rate became stable. The measurement of the acidification rate was made during pumping cycle of ON for 80 seconds and OFF for 40 seconds(2 minutes to one cycle). A rate of change in extracellular pH from 8 to 30 seconds after the pumping off was calculated as an acidification rate with the site sensor.
# Pig Neuromedin-8 (BACHEM, H-5505, SEQ ID NO:5) was dissolved in distilled water at the concentration of 10mM, and then the gradually diluted solutions were prepared with low buffered RPMI medium containing 0.1% BSA. […]
row,Substance,cell-stimulating activity (acidification rate)
1,"Pig Neuromedin-8: pig Neuromedin U-8, peptide of 8 amino acid residues, BACHEM, H-5505, SEQ ID NO:5",detected in a does-dependent manner and specific to FM-3-expressing CHO cells
